Laboratory results reported in US20170226560.

Target: peptide substrate shown in FIG. 9a (Protease K substrate)

B1: Protease K (protein)
chain: AAQTNAPWGLARISSTSPGTSTYYYDESAGQGSCVYVIDTGIEASHPEFEGRAQMVKTYYYSSRDGNGHGTHCAGTVGSRTYGVAKKTQLFGVKVLDDNGSGQYSTIIAGMDFVASDKNNRNCPKGVVASLSLGGGYSSSVNSAAARLQSSGVMVAVAAGNNNADARNYSPASEPSVCTVGASDRYDRRSSFSNYGSVLDIFGPGTSILSTWIGGSTRSISGTSMATPHVAGLAAYLMTLGKTTAASACRYIADTANKGDLSNIPFGTVNLLAYNNYQA
For B1, the “ratio of the absorption at 700 nm/520 nm (750 nM peptide, Protease K up to 300 pM, 60 min, 20 C)” value was “With increasing amounts of protease K the spectrum shifts back toward the native spectrum seen in the gold nanoparticles alone and the ratio falls to nearly 0”.
